According to patent publication US20220315908A1, “NOVEL GARDNERELLA ENDOLYSINS AND USES THEREOF” (priority 2019, published 2022):

How the values were obtained:
[1] = test system: G. swidsinskii strain Gv_23; assay: Quantitative reduction in viable CFU assay in bacterial suspension; format: cell-based, Gardnerella swidsinskii; details: 5 hours, pH 5.0, anaerobic, 10 ul endolysin (0.2 mg/ml where possible) + 90 ul 5e7 CFU/ml, average of triplicate
Protocol: The lysis activity on the four main species of Gardnerella of 91 constructs (natural and domain-swapped endolysins) was quantitatively assessed using the method described in Reference Example 2. Briefly, 90 ul 5e7 CFU/ml of the indicated strain were incubated for 5 hours at pH 5.0 under anaerobic conditions with 10 ul endolysin (concentration adjusted to 0.2 mg/ml where possible, see Table 4).
The results are shown in FIGS. 8A to 8D together with Tables 5A to 5C. In FIGS. 8A to 8D, the logarithmic Y axis depicts the count of surviving cells. The dotted line indicates the limit of detection (LOD) given by plating of 2 ul of the reaction mix (500 CFU/ml). Each combination of the natural 10 H-domains and the natural 9 B-regions was assessed, including the natural endolysins (H1B1, H2B2, H3B3, etc.), plus H6B6. […] The activity of each construct was measured on each of the 4 main Gardnerella species G. vaginalis sensu stricto, G. leopoldii, G. piotii, and G. swidsinkii. All conditions have been measured in triplicate. The survival after 5 hours incubation at pH 5.0 under anaerobic conditions with endolysins vs. buffer was measured by quantitative plating. The values indicate the log 10 of the ratio of surviving CFU for treated vs. untreated cells. The average of the triplicate measurements is used. In tables 5A and 5B, high negative log 10 values, e.g. −6.7, −5.5, −4.8 etc. are associated with high enzymatic activity, while log 10 values closer to zero or even positive log 10 values are associated with low or no enzymatic activity. […] Inversely, a reduction value of −3.7 means a 10^3.7-fold (=5012-fold) reduction of viable CFU in treated sample vs. untreated control.
(§1) Gardnerella cells were recovered from cryo stock by plating on Chocolate Agar plates (Beckton Dickinson) and incubating for 48 h at 37° C. under anaerobic conditions. For Lactobacilli, BD Schaedler/5% sheep blood agar plates were used instead. Colonies were scraped from the plate, resuspended in Hardy Broth or NYC-III-HS-5.0 at the pH as indicated, and the suspension adjusted to OD (610 or 620 nm as indicated) 0.1. It has to be noted that two Tecan Microplate readers, having respectively a 610 nm or 620 nm filter, have been used interchangeably in the experiments. Although it doesn't make any difference for the experiments, the exact wavelength used is specified in each example. If not stated otherwise, 90 μl cell suspension was mixed with 10 μl endolysin solution, for the different species/endolysin combinations, in 384-well plates. OD(610-620 nm as indicated) was measured at the beginning of the reaction and at the end, either as two measurement points or as a continuous kinetic in a Tecan F200 Microplate reader. The reactions were incubated for 5 hours (or otherwise the time indicated) at 37° C. under anaerobic, micro-aerophilic or aerobic conditions as indicated. Anaerobic conditions intend that oxygen was fully depleted from the container in which the bacteria are incubated (Sigma-Aldrich anaerobic jar or sealable lunch box) with an anaerobic sachet, and the lack of oxygen was confirmed with an anaerobic indicator inside the container. Where micro-aerophilic conditions are indicated, the candle-in-a-jar method was used (tea candle lit in an appropriate sealable container, which reduces oxygen levels until the flame dies out). Then each well was diluted in 5 steps (10^−1 to 10^−5) using 96-U-well bottom plates, and 2 μl of each dilution of each reaction mix are plated on BD Chocolate agar plates or BD Schaedler/5% sheep blood agar plates for Gardnerella and Lactobacilli, respectively, for detecting and quantifying surviving CFU. Detection plates were incubated at 37° C. for 48 hours under anaerobic conditions.

[2] = test system: Gardnerella cells; assay: Turbidity reduction (OD) assay of Gardnerella suspensions; format: cell-based; details: Gv_10 pH 6.0, Gv_17 pH 7.0, Gv_23 pH 7.4; aerobic, room temperature; vs buffer
Protocol: FIGS. 4A to 4C show three enzymatic activity assays where the enzymatic activity of natural Gardnerella prophage endolysins of the present disclosure is measured by detecting the change in turbidity of a suspension of Gardnerella cells. In FIG. 4A, the enzymatic activity of the endolysins is measured by detecting the change in turbidity of a suspension of the G. leopoldii strain Gv_10 at pH 6.0. In FIG. 4B, the enzymatic activity of the endolysins is measured by detecting the change in turbidity of a suspension of the G. piotii strain Gv_17 at pH 7.0. In FIG. 4C, the enzymatic activity of the endolysins is measured by detecting the change in turbidity of a suspension of the G. swidsinskii strain Gv_23 at pH 7.4. Treatment was conducted in a medium adjusted to the appropriate pH in a photometric cuvette against buffer. Then, the change in turbidity was assessed by measuring the optical density (OD) at 600 nm. As a result, the drop in turbidity was more pronounced for the endolysin treated groups than for the buffer, indicating enzymatic activity.
To test the activity of the purified endolysins, the turbidity change of Gardnerella suspensions (see Table 2) was measured at 610-620 nm using essentially the method described in Reference Example 2, where 95 ul of bacterial suspension in Hardy Broth at the indicated pH was mixed with 5 ul of endolysin solution in a photometric cuvette under aerobic conditions at room temperature. In turbidity reduction assays, a decrease in light scattering (i.e., turbidity reduction) of a suspension of live cells can be used in a spectrophotometer to assay the activity of peptidoglycan hydrolases. The reduction in optical density over time (minutes) can be used to calculate a rate of hydrolysis. Results are compared to a “no-enzyme added, buffer only” control preparation treated identically for the same period of time. In this manner, a specific activity of the enzyme preparation can be reported as ΔOD/time/ul lysin protein. […] As explained above, due to the low content of peptidoglycan in the cell wall, the fact that a peptidoglycan-degrading enzyme such as the identified endolysins could efficiently lyse the bacterial cell walls was an unexpected and surprising discovery.
as §1, with “Then each well was diluted in 5 steps (10^−1 to 10^−5) using 96-U-well bottom plates, and 2 μl of each dilution of each reaction mix are plated on BD Chocolate agar plates or BD Schaedler/5% sheep blood agar plates for Gardnerella and Lactobacilli, respectively, for detecting and quantifying surviving CFU. Detection plates were incubated at 37° C. for 48 hours under anaerobic conditions.” left out

| Molecule | log 10 of the ratio of surviving CFU for treated vs. untreated cells [1] [log 10] | enzymatic activity by drop in turbidity (capacity to lyse Gardnerella cell walls) [2] |
| --- | --- | --- |
| H4B4: natural Gardnerella prophage endolysin from strain Gv5-1 (protein, EL4_strain_Gv5-1) MSKKGIDVSEWQGDIDFNAVKASGVEFVIIRAGYGIGCKDKWFEQNYRKAKTCGLDVGAYWYSYANSGFEAAEEAQSCVNMLSGKSFEYPVYFDLEEKSQLNRGRAFCDSLITSFCSKLETYGYYAGFYTSLSVVNNLVSAHVRDRYALWIAQWNTHCSYQGSYGLWQYSSSGSVPGVAGRVDMDYAYVDYPSIIKNVGLNGCKNGGSDQATRTSSIDEVAREVINGAWGNGNERKQRLTSAGYDYASVQNKVNKLLGVKAYRKSVDELAREVIRGTWGNGNERKQRLAQAGYDYDTVQKRVNELL | −2.0 | active |
| H1B1: natural Gardnerella prophage endolysin from strain HMP9231 (protein, EL1_strain_HMP9231, natural Gardnerella prophage endolysin from strain HMP9231) MSKKGIDVSEWQGDIDFNAVKASGVEFVIIRAGYGIGCKDKWFEQNYRKAKTAGLDVGAYWYSYANSGFEAAEEAQSLMNMLSGKSFEYPVYFDLEEKSQLNRGRAFCDSLITSFCNKLEACGYYAGFYTSLSTANNLVSAHVRNRYALWIAQWNTHCNYQGSYGLWQYSSNGSVPGVAGRVDMDYAYVDYPSIIKNAGLNGCKNGGSDQAARTSSIDEVAREVINGAWGNGSTRKQRLTSAGYDYASVQNKVNELLGVKACRKSVDELAREVIRGAWGNGSTRKQRLAQAGYDYDTVQKRVNELL | −3.5 | active |
| H5B5: natural Gardnerella prophage endolysin from strain JCP7276 (protein, EL5_strain_JCP7276, natural Gardnerella prophage endolysin from strain JCP7276) MSKKGIDVSEWQGDIDFNAVKASGVEFVIIRAGYGIGCKDKWFEQNYRKAKTAGLDVGAYWYSYANSSSEAAEEAQSCANMLSGKSFEYPVYFDLEEKSQLNRGRAFCDSLITGFCSKLEACGYYAGFYTSLSTANNLVSAHVRNRYALWIAQWNTHCSYQGSYGLWQYSSNGSVPGVAGRVDMDYAYKDYPSIIKNAGLNGCKNGGSDQAARTSSIDEVAREVINGAWGNGNERKQRLTQAGYDYTSVQNKVNKLLGVKACRKSVDELAREVIRGTWGNGNERKNRLTQAGYDYDTVQKRVNELL | −0.1 | active |
| H7B7: natural Gardnerella prophage endolysin from strain AMD (protein, EL7_strain_AMD, natural Gardnerella prophage endolysin from strain AMD) MSKKGIDVSEWQGDIDFNAVKASGVEFVIIRAGYGIGCKDKWFEQNYRKAKTAGLDVGAYWYSYANSASEAAEEAQSCANMLSGKSFEYPVYFDLEEKSQLNRGRAFCDSLITSFCSKLETYGYYAGFYTSLSTANNLVSSHVRNRYALWIAQWNTHCSYQGSYGLWQYSSSGSVPGVAGRVDMDYAYKDYPSIIKNAGLNGCKNGGSDQAARTSSIDEVAREVINGAWGNGNERKQRLTQAGYDYTSVQNKVNKLLGVKACRKSVDELAREVIRGTWGNGNERKNRLTQAGYDYDTVQKRVNELL | −3.2 | active |
| H2B2: natural Gardnerella prophage endolysin from strain Gv18-4 (protein, EL2_strain_Gv18-4) MSKRGIDVSEWQGDIDFNAVKASGVEFVIIRAGYGIGCKDKWFEQNYRKAKTCGLDVGAYWYSYANSGFEAAEEAQSCVNMLSGKSFEYPVYFDLEEKSQLNRGRAFCDSLITGFCNKLESCGYYAGFYTSLSTANNLVSAHVRNRYALWIAQWNTHCSYQGSYGLWQYSSSGSVPGVAGRVDMDYAYVDYPSIIKNVGLNGCKNGGSDQAARTSSIDEVAREVINGAWGNGNERKQRLTSAGYDYASVQNKVNELLGVKACRKSVDEIAREVIRGTWGNGSTRKQRLTQAGYDYDTVQKRVNELL | −5.4 | active |
| H3B3: natural Gardnerella prophage endolysin from strain Gv18-4 (protein, EL3_strain_Gv18-4) MSKKGIDVSVWQGDIDFNSVKASGVEFVIIRAGYGIGHKDKWFEENYRKAKTAGLDVGSYWYSYASSAGEASEEAQSCVNILSGKSFEYPIYFDLEEKSQLNRGRDFCDSLITSFCNKLEACGYYAGFYTSLSVANNLVSSHVRDRYALWIAQWNTHCSYQGSYGLWQYSSSGSVNGIAGRVDMDYAYVDYPSVIKNAGLNGYQNGGSYTAPQTSSIDEVAREVINGDWGNGNDRKNRLISAGYDYASVQNKVNELLGVKAYRKSVDELAREVIRGTWGNGSMRKHRLTQAGYDYDAVQKRVNELL | −5.4 | active |
